To fix the notation:
B4: rat Unc5D ectodomain (Unc5D^ecto), biotinylated at a C-terminal Avitag (domain or fragment)
chain: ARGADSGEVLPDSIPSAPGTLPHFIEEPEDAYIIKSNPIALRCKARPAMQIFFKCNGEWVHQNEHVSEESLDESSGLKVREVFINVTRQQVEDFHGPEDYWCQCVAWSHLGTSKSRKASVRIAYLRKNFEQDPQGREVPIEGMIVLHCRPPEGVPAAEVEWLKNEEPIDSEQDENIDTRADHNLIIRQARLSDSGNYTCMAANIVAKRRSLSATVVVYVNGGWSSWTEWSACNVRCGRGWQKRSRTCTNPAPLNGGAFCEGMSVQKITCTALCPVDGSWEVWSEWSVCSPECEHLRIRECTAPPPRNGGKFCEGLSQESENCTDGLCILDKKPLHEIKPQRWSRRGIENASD
modifications: biotin on the C-terminal Avitag (enzymatic)

Experiment [1] addresses T1, Olf domain of mouse Latrophilin3 (Lphn3^Olf) (mouse, UniProt Q80TS3-3 199-495).
T1 chain: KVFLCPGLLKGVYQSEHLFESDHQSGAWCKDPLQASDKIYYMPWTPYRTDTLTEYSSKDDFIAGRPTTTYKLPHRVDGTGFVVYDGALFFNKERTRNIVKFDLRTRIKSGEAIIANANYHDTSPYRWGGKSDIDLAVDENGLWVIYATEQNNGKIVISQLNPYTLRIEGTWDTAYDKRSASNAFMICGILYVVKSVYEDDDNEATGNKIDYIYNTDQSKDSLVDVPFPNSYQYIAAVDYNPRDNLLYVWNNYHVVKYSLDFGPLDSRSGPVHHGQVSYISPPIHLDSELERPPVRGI
The experiment can be described thus: ITC. Background: ITC needs no label: the signal is the heat of the interaction.

In experiment [2] the target is T2, Unc5D ectodomain (Unc5D^ecto), ITC construct (human (methods; the results say rat), UniProt Q6UXZ4 32-383). The experiment can be described thus: ITC.
T2 sequence (Q6UXZ4 32-383): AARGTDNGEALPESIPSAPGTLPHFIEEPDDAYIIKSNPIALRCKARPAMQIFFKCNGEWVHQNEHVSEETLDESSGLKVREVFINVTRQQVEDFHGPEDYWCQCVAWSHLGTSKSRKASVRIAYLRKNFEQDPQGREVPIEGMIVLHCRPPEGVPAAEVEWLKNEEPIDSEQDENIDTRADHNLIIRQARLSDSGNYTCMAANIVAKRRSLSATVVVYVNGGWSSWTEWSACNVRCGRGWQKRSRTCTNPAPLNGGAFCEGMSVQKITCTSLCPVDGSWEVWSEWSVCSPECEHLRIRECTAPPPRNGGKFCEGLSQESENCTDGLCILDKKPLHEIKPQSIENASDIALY
Experiment [3] has as its target T2, Unc5D ectodomain (Unc5D^ecto), ITC …. The experiment can be described thus: ITC; FLRT2ecto premixed 1:1 with Lphn3Olf.
For experiment [4], the target named is B4. The experiment can be described thus: SPR; apparent KD; FLRT2LRR mixed with Lphn3Lec-Olf.
Experiment [5] concerns the target FLRT2^LRR+Lphn3^Lec–Olf DDD mutant (mouse, UniProt Q8BLU0 35-362; Q80TS3-3 92-463, D397N | D399T, artificial N-linked glycan at position 397). The experiment can be described thus: SPR; apparent KD; FLRT2LRR mixed with Lphn3Lec-Olf DDD mutant.

Among the data in PMC4838878 (2016) are Kd values, retold here.

B1: mouse FLRT2 ectodomain (FLRT2^ecto), ITC construct (domain or fragment)
chain: CPSVCRCDRNFVYCNERSLTSVPLGIPEGVTVLYLHNNQINNAGFPAELHNVQSVHTVYLYGNQLDEFPMNLPKNVRVLHLQENNIQTISRAALAQLLKLEELHLDDNSISTVGVEDGAFREAISLKLLFLSKNHLSSVPVGLPVDLQELRVDENRIAVISDMAFQNLTSLERLIVDGNLLTNKGIAEGTFSHLTKLKEFSIVRNSLSHPPPDLPGTHLIRLYLQDNQINHIPLTAFANLRKLERLDISNNQLRMLTQGVFDHLSNLKQLTARNNPWFCDCSIKWVTEWLKYIPSSLNVRGFMCQGPEQVRGMAVRELNMNLLSCPTTTPGLPVFTPAPSTVSPTTQSPTLSVPSPSRGSVPPAPTPSKLPTIPDWDGRERVTPPISERIQLSIHFVNDTSIQVSWLSLFTVMAYKLTWVKMGHSLVGGIVQERIVSGEKQHLSLVNLEPRSTYRICLVPLDAFNYRTVEDTICSEATTHASYLNNGSNTASSHEQTTSHSMGSPF
As for B1, the values for the Kd in experiment [1] and in experiment [2] were 9.7 nM and 2300 nM, respectively.

B2: FLRT2^ecto+Lphn3^Olf (kept together in the ITC cell) (complex)
chain 1: CPSVCRCDRNFVYCNERSLTSVPLGIPEGVTVLYLHNNQINNAGFPAELHNVQSVHTVYLYGNQLDEFPMNLPKNVRVLHLQENNIQTISRAALAQLLKLEELHLDDNSISTVGVEDGAFREAISLKLLFLSKNHLSSVPVGLPVDLQELRVDENRIAVISDMAFQNLTSLERLIVDGNLLTNKGIAEGTFSHLTKLKEFSIVRNSLSHPPPDLPGTHLIRLYLQDNQINHIPLTAFANLRKLERLDISNNQLRMLTQGVFDHLSNLKQLTARNNPWFCDCSIKWVTEWLKYIPSSLNVRGFMCQGPEQVRGMAVRELNMNLLSCPTTTPGLPVFTPAPSTVSPTTQSPTLSVPSPSRGSVPPAPTPSKLPTIPDWDGRERVTPPISERIQLSIHFVNDTSIQVSWLSLFTVMAYKLTWVKMGHSLVGGIVQERIVSGEKQHLSLVNLEPRSTYRICLVPLDAFNYRTVEDTICSEATTHASYLNNGSNTASSHEQTTSHSMGSPF
chain 2: KVFLCPGLLKGVYQSEHLFESDHQSGAWCKDPLQASDKIYYMPWTPYRTDTLTEYSSKDDFIAGRPTTTYKLPHRVDGTGFVVYDGALFFNKERTRNIVKFDLRTRIKSGEAIIANANYHDTSPYRWGGKSDIDLAVDENGLWVIYATEQNNGKIVISQLNPYTLRIEGTWDTAYDKRSASNAFMICGILYVVKSVYEDDDNEATGNKIDYIYNTDQSKDSLVDVPFPNSYQYIAAVDYNPRDNLLYVWNNYHVVKYSLDFGPLDSRSGPVHHGQVSYISPPIHLDSELERPPVRGI
For the molecule B2, in experiment [3], the Kd was 106 nM.

B3: FLRT2^LRR+Lphn3^Lec–Olf (mixed in a 1:2 molar ratio) (complex)
chain 1: ACPSVCRCDRNFVYCNERSLTSVPLGIPEGVTVLYLHNNQINNAGFPAELHNVQSVHTVYLYGNQLDEFPMNLPKNVRVLHLQENNIQTISRAALAQLLKLEELHLDDNSISTVGVEDGAFREAISLKLLFLSKNHLSSVPVGLPVDLQELRVDENRIAVISDMAFQNLTSLERLIVDGNLLTNKGIAEGTFSHLTKLKEFSIVRNSLSHPPPDLPGTHLIRLYLQDNQINHIPLTAFANLRKLERLDISNNQLRMLTQGVFDHLSNLKQLTARNNPWFCDCSIKWVTEWLKYIPSSLNVRGFMCQGPEQVRGMAVRELNMNLLSCPT
chain 2: PIPMAVVRRELSCESYPIELRCPGTDVIMIESANYGRTDDKICDSDPAQMENIRCYLPDAYKIMSQRCNNRTQCAVVAGPDVFPDPCPGTYKYLEVQYECVPYKVEQKVFLCPGLLKGVYQSEHLFESDHQSGAWCKDPLQASDKIYYMPWTPYRTDTLTEYSSKDDFIAGRPTTTYKLPHRVDGTGFVVYDGALFFNKERTRNIVKFDLRTRIKSGEAIIANANYHDTSPYRWGGKSDIDLAVDENGLWVIYATEQNNGKIVISQLNPYTLRIEGTWDTAYDKRSASNAFMICGILYVVKSVYEDDDNEATGNKIDYIYNTDQSKDSLVDVPFPNSYQYIAAVDYNPRDNLLYVWNNYHVVKYSLDFGPLD
B3: the Kd in experiment [4] is around 9 nM. Regarding B4, the Kd in experiment [5] is around 9 nM.
